Experimental data published in paper PMC10083269, “Basic characterization of antibodies targeting receptors of the tumor necrosis factor receptor superfamily” (Frontiers in Immunology, 2023).
Blank lines part the entries; values can stand above or below the binder they belong to.

How the values were obtained:
[1] = target: T1, CD40 on HT1080-CD40 cells (Homo sapiens, UniProt P25942); experiment: cellular competition binding with a GpL-TNFL fusion protein; HT1080 transfectants (2 x 10^4 per well) incubated with an excess of the GpL-free antibody (10 µg/ml) or VHH Fc fusion protein for 30 minutes, then GpL-TNFL added at a concentration close to its KD (typically 1 - 100 ng/ml); remaining specific binding against TNFR negative HT1080 cells; details: partners not purified
T1 construct: CD40 expressed on HT1080-CD40 transfectants; also called CD40-expressing cells

CD40(ed)-Fc = target: T2, CD40(ed)-Fc (Homo sapiens, UniProt P25942); experiment: cell-free equilibrium binding of a GpL (luciferase) fusion protein on coated plates; black high binding 96-well plates coated with 1 µg/ml CD40(ed)-Fc in 0,1 M carbonate buffer at 4°C overnight, blocked with 10% FCS in PBS, two-fold dilution series of the GpL antibody fusion protein, 37°C, 1 h; non-specific binding from irrTNFR(ed)-Fc wells, from wells blocked with an excess of the GpL-free antibody, or from an …; details: one partner purified
T2 construct: extracellular domain of CD40; coated directly on the plate; the legend's footnote says that purified TNFR(ed)-Fc can be coated directly, so it was probably purified; also called Fc fusion protein of the extracellular CD40 domain; source: HEK293T, transient transfection (said of the recombinant proteins in general)

[2] = target: T1, CD40 on HT1080-CD40 cells; experiment: cellular equilibrium binding of a GpL (luciferase) fusion protein; adherent HT1080-CD40 cells in 96-well plates (2 x 10^4 cells/well), two-fold dilution series of the GpL antibody fusion protein, 37°C, 30 min to 1 h, five washes with icecold PBS, cell-associated luminescence; non-specific binding from HT1080 cells, from cells blocked with an excess of the GpL-free antibody, or from an irrelevant IgG1-LC:GpL; one …; details: partners not purified
TNFR2(ed)-CRD1-GpL = target: T3, TNFR2(ed)-CRD1-GpL (Homo sapiens, point mutant); experiment: cell-free binding of GpL-tagged receptor fragments to plate-captured antibody; plates coated with 1 µg/ml protein G, antibody (1 µg/ml) captured 1 h at 37°C, 500 ng/ml TNFR2-GpL fusion proteins added in medium for 2 h at 37°C, well-associated luminescence; irrelevant IgG1 wells subtracted; details: partners not purified
T3 construct: TNFR2, CRD1 of the ectodomain; also called GpL fusion protein of the TNFR2 CRD1 alone; source: HEK293T, transient transfection (PEI); not shown: GpL (Gaussia princeps luciferase), C-terminal, kept
T3 chain: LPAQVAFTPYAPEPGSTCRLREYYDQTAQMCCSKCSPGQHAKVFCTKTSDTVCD

TNFR2(ed)-CRD1-2-GpL = target: T4, TNFR2(ed)-CRD1-2-GpL (Homo sapiens, point mutant); experiment: as above; details: partners not purified
T4 construct: TNFR2, CRD1-CRD2 of the ectodomain; also called GpL-tagged deletion mutant of the TNFR2 ectodomain lacking the stalk region + CRDs 3 and 4; source: HEK293T, transient transfection (PEI); not shown: GpL (Gaussia princeps luciferase), C-terminal, kept
T4 chain: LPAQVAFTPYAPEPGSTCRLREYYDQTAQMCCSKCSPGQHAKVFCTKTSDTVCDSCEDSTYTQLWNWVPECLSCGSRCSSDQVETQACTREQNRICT

TNFR2(ed)-CRD1-4-GpL = target: T5, TNFR2(ed)-CRD1-4-GpL (Homo sapiens, point mutant); experiment: as above; details: partners not purified
T5 construct: TNFR2, CRD1-CRD4 of the ectodomain (stalk region lacking); also called GpL-tagged deletion mutant of the TNFR2 ectodomain lacking the stalk region; source: HEK293T, transient transfection (PEI); not shown: GpL (Gaussia princeps luciferase), C-terminal, kept
T5 chain: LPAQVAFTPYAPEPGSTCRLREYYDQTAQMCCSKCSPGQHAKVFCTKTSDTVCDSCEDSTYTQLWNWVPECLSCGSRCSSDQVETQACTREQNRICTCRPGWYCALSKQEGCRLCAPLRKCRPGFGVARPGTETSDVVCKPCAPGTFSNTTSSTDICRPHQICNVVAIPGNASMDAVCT

TNFR2(ed)-CRD1-3-GpL = target: T6, TNFR2(ed)-CRD1-3-GpL (Homo sapiens, point mutant); experiment: as above; details: partners not purified
T6 construct: TNFR2, CRD1-CRD3 of the ectodomain; also called GpL-tagged deletion mutant of the TNFR2 ectodomain lacking the stalk region + CRD4; source: HEK293T, transient transfection (PEI); not shown: GpL (Gaussia princeps luciferase), C-terminal, kept
T6 chain: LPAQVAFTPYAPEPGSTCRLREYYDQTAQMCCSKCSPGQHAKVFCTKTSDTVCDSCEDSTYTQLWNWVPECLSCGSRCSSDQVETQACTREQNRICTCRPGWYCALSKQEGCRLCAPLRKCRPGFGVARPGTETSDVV

T1 sequence (P25942 21-277): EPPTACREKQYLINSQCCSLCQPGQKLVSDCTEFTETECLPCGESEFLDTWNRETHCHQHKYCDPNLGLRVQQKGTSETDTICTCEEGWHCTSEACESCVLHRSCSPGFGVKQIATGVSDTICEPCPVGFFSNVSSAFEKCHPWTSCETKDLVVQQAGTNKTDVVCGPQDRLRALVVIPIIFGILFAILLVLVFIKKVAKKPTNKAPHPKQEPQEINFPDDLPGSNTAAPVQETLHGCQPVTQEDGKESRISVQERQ
T2 sequence (P25942 21-193): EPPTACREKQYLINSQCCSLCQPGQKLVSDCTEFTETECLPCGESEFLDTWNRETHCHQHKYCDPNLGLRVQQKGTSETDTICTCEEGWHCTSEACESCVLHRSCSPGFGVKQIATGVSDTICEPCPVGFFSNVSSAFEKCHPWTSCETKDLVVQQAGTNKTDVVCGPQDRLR

binding result [1]: binds
B1: Anti-CD40(ADC)-IgG1 (antibody, V domains shown)
VH: EVQLLESGGGLVQPGGSLRLSCAASGFTFSTYGMHWVRQAPGKGLEWLSYISGGSSYIFYADSVRGRFTISRDNSENALYLQMNSLRAEDTAVYYCARILRGGSGMDLWGQGTLVTVSS
VL: QSVLTQPPSASGTPGQRVTISCTGSSSNIGAGYNVYWYQQLPGTAPKLLIYGNINRPSGVPDRFSGSKSGTSASLAISGLRSEDEADYYCAAWDKSISGLVFGGGTKLTVL
notes: heavy chain of recombinant anti-CD40 IgG1 clone ADC1013; light chain of recombinant anti-CD40 IgG1 clone ADC1013; IgG1; also called ADC1013; variant of the anti-CD40 antibody ADC-1013; source: HEK293T, transient transfection (PEI)

binding result (CD40(ed)-Fc): binds
binding result [2]: binds
B2: anti-CD40(G28.5)-IgG1-LC : GpL (antibody, V domains shown)
VH: DIQLQQSGPGLVKPSQSLSLTCSVTGYSITTNYNWNWIRQFPGNKLEWMGYIRYDGTSEYTPSLKNRVSITRDTSMNQFFLRLTSVTPEDTATYYCARLDYWGQGTLVTVSS
VL: DIVMTQNPLSLPVSLGDEASISCRSSQSLENSNGNTFLNWFFQKPGQSPQLLIYRVSNRFSGVPDRFSGSGSGTDFTLKISRVEAEDLGVYFCLQVTHVPYTFGGGTTLEIK
notes: heavy chain of recombinant anti-CD40 IgG1 clone G28.5; light chain of recombinant anti-CD40 IgG1 clone G28.5; IgG1; GpL domain on the C-terminus of the light chain; also called GpL-Ab-Fp of the CD40-specific antibody G28.5; source: HEK293T, transient transfection (PEI), cell culture supernatant; not shown: GpL (Gaussia princeps luciferase), C-terminal, kept

binding result (CD40(ed)-Fc): binds
binding result [2]: binds
B3: anti-CD40(G28.5)-IgG1 (antibody, V domains shown)
VH: B2 VH
VL: B2 VL
notes: as the heavy chain of m1; as the light chain of m1, without the GpL domain; IgG1; also called GpL-free version of G28.5; source: HEK293T, transient transfection (PEI)

binding result (TNFR2(ed)-CRD1-GpL): no binding (tested: 500 ng/ml)
binding result (TNFR2(ed)-CRD1-2-GpL): binds
binding result (TNFR2(ed)-CRD1-4-GpL): binds
binding result (TNFR2(ed)-CRD1-3-GpL): binds
B4: anti-TNFR2(68/69)-IgG1(N297A) (antibody, V domains shown)
VH: QVTLKESGPALVKPTQTLTLTCTFSGFSLSTSGMGVGWIRQPPGKALEWLAHIWWDDDKFYNPSLKSRLTISKDTSKNQVVLTMTNMDPVDTATYYCARLTGTRYFDYWGQGTTVTVSS
VL: DVQMTQSPSSLSASVGDRVTITCKASQDINKFIAWYQQKPGKAPKLLIHYTSTLQPGIPSRFSGSGSGRDYTFTISSLQPEDIATYYCLQYGNLWTFGGGTKVEIK
notes: heavy chain of recombinant anti-TNFR2 IgG1(N297A) clone SBT-002 (68/69); light chain of recombinant anti-TNFR2 clone SBT-002 (68/69); IgG1 with N297A in the Fc; also called SBT-002; anti-TNFR2 antibody 68/69; source: HEK293T, transient transfection (PEI)
